Test results reported in paper PMC10786891, “Massively parallel profiling of RNA-targeting CRISPR-Cas13d”.
Changes are numbered by the printed parent chain. In names and notes the source's numbering stands.

T1: EsCas13d, nuclease-dead (Eubacterium siraeum, UniProt B0MS50, R295A;H300A;R849A;H854A)
T1 sequence: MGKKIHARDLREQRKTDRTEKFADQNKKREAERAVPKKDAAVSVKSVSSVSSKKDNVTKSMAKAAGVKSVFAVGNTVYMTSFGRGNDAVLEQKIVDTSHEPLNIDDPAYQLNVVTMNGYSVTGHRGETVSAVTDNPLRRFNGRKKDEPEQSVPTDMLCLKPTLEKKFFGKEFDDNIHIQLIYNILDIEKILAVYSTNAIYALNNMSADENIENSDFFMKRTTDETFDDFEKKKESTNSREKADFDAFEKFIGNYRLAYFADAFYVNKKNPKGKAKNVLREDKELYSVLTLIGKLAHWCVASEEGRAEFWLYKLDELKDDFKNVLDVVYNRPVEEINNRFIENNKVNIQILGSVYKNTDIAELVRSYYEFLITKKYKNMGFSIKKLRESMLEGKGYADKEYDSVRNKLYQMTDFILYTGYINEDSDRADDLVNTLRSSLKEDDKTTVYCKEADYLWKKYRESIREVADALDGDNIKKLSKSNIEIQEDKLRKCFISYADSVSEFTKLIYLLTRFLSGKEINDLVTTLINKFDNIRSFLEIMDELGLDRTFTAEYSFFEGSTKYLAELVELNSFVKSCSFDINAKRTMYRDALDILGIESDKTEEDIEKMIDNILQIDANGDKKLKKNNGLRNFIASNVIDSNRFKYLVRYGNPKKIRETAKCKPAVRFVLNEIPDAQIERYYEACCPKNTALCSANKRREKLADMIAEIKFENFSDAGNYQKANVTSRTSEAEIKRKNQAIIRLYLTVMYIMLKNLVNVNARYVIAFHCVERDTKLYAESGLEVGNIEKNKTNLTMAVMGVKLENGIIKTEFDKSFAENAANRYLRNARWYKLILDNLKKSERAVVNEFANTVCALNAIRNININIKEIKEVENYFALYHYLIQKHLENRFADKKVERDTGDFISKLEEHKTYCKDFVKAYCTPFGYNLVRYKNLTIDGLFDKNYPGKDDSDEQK

B1: target 1 MT 5'PFS UGU 3'PFS UCU (mixed)
RNA 1: CACCCGUGCAAAAAUGCAGGGGUCUAAAACUGAGCGGAUAACCUCUCUAUGG
RNA 2: GGGAAUGGAUCCACAUCUACGAAUUCUGUCCAUAGAGAGGUUAUCCGCUCAUCUAGAUCGGAAGAGCACACGU
B2: target 1 MT 5'PFS UCC 3'PFS AUG (mixed)
RNA 1: B1 RNA 1
RNA 2: B1 RNA 2 with G28C, U29C, U52A, C53U, U54G
B3: target 1 MT 5'PFS UGU 3'PFS UCG (mixed)
RNA 1: B1 RNA 1
RNA 2: B1 RNA 2 with U54G
B4: target 1 MT 5'PFS GGA 3'PFS CAG (mixed)
RNA 1: B1 RNA 1
RNA 2: B1 RNA 2 with U27G, U29A, U52C, C53A, U54G
B5: target 1 MT 5'PFS GGA 3'PFS ACC (mixed)
RNA 1: B1 RNA 1
RNA 2: B1 RNA 2 with U27G, U29A, U52A, U54C
B6: target 1 U19G,A20C (mixed)
RNA 1: B1 RNA 1
RNA 2: B1 RNA 2 with U27G, G28U, U29A, A32C, U33G, U52C, U54G
B7: target 1 MT 5'PFS CAA 3'PFS UUA (mixed)
RNA 1: B1 RNA 1
RNA 2: B1 RNA 2 with U27C, G28A, U29A, C53U, U54A
B8: target 1 MT 5'PFS CUC 3'PFS UUC (mixed)
RNA 1: B1 RNA 1
RNA 2: B1 RNA 2 with U27C, G28U, U29C, C53U, U54C
B9: target 1 MT 5'PFS CUC 3'PFS CCU (mixed)
RNA 1: B1 RNA 1
RNA 2: B1 RNA 2 with U27C, G28U, U29C, U52C
B10: target 1 MT 5'PFS UCG 3'PFS ACU (mixed)
RNA 1: B1 RNA 1
RNA 2: B1 RNA 2 with G28C, U29G, U52A
B11: target 1 MT 5'PFS UCC 3'PFS AUA (mixed)
RNA 1: B1 RNA 1
RNA 2: B1 RNA 2 with G28C, U29C, U52A, C53U, U54A
B12: target 1 MT 5'PFS GGA 3'PFS CAC (mixed)
RNA 1: B1 RNA 1
RNA 2: B1 RNA 2 with U27G, U29A, U52C, C53A, U54C
B13: target 1 MT 5'PFS ACU 3'PFS CUU (mixed)
RNA 1: B1 RNA 1
RNA 2: B1 RNA 2 with U27A, G28C, U52C, C53U
B14: target 1 MT 5'PFS UUG 3'PFS UAC (mixed)
RNA 1: B1 RNA 1
RNA 2: B1 RNA 2 with G28U, U29G, C53A, U54C
B15: target 1 MT 5'PFS UGU 3'PFS UCC (mixed)
RNA 1: B1 RNA 1
RNA 2: B1 RNA 2 with U54C
B16: target 1 insC 3' of 11,insA 3' of 11 (mixed)
RNA 1: B1 RNA 1
RNA 2: GGGAAUGGAUCCACAUCUACGAAUUCGUACCAUAGAGAGGUCAUAUCCGCUCACCGAGAUCGGAAGAGCACACGU
B17: target 1 MT 5'PFS CUU 3'PFS AUA (mixed)
RNA 1: B1 RNA 1
RNA 2: B1 RNA 2 with U27C, G28U, U52A, C53U, U54A
B18: target 1 MT 5'PFS UUG 3'PFS UAG (mixed)
RNA 1: B1 RNA 1
RNA 2: B1 RNA 2 with G28U, U29G, C53A, U54G
B19: target 1 MT 5'PFS UUG 3'PFS UAU (mixed)
RNA 1: B1 RNA 1
RNA 2: B1 RNA 2 with G28U, U29G, C53A
B20: target 1 MT 5'PFS CCG 3'PFS UGC (mixed)
RNA 1: B1 RNA 1
RNA 2: B1 RNA 2 with U27C, G28C, U29G, C53G, U54C
B21: target 1 MT 5'PFS GGA 3'PFS CAA (mixed)
RNA 1: B1 RNA 1
RNA 2: B1 RNA 2 with U27G, U29A, U52C, C53A, U54A
B22: target 1 MT 5'PFS GGA 3'PFS ACG (mixed)
RNA 1: B1 RNA 1
RNA 2: B1 RNA 2 with U27G, U29A, U52A, U54G
B23: target 1 MT 5'PFS AAC 3'PFS AUU (mixed)
RNA 1: B1 RNA 1
RNA 2: B1 RNA 2 with U27A, G28A, U29C, U52A, C53U
B24: target 1 MT 5'PFS GGA 3'PFS ACA (mixed)
RNA 1: B1 RNA 1
RNA 2: B1 RNA 2 with U27G, U29A, U52A, U54A
B25: target 1 MT 5'PFS UUA 3'PFS AAA (mixed)
RNA 1: B1 RNA 1
RNA 2: B1 RNA 2 with G28U, U29A, U52A, C53A, U54A
B26: target 1 MT 5'PFS ACU 3'PFS CUA (mixed)
RNA 1: B1 RNA 1
RNA 2: B1 RNA 2 with U27A, G28C, U52C, C53U, U54A
B27: target 1 MT 5'PFS GCG 3'PFS CGG (mixed)
RNA 1: B1 RNA 1
RNA 2: B1 RNA 2 with U27G, G28C, U29G, U52C, C53G, U54G
B28: target 1 MT 5'PFS GUA 3'PFS GUG (mixed)
RNA 1: B1 RNA 1
RNA 2: B1 RNA 2 with U27G, G28U, U29A, U52G, C53U, U54G
B29: target 1 MT 5'PFS CAU 3'PFS AUA (mixed)
RNA 1: B1 RNA 1
RNA 2: B1 RNA 2 with U27C, G28A, U52A, C53U, U54A
B30: target 1 MT 5'PFS GUA 3'PFS GUC (mixed)
RNA 1: B1 RNA 1
RNA 2: B1 RNA 2 with U27G, G28U, U29A, U52G, C53U, U54C
B31: target 1 insU 3' of 17,insU 3' of 12 (mixed)
RNA 1: B1 RNA 1
RNA 2: B16 RNA 2 with A36U, G37A, A38G, G39A, U41G, C42U, A43U
B32: target 1 MT 5'PFS CUC 3'PFS UUA (mixed)
RNA 1: B1 RNA 1
RNA 2: B1 RNA 2 with U27C, G28U, U29C, C53U, U54A
B33: target 1 MT 5'PFS UGU 3'PFS UCA (mixed)
RNA 1: B1 RNA 1
RNA 2: B1 RNA 2 with U54A
B34: target 1 MT 5'PFS UCC 3'PFS AUC (mixed)
RNA 1: B1 RNA 1
RNA 2: B1 RNA 2 with G28C, U29C, U52A, C53U, U54C
B35: target 1 MT 5'PFS CCG 3'PFS UGU (mixed)
RNA 1: B1 RNA 1
RNA 2: B1 RNA 2 with U27C, G28C, U29G, C53G
B36: target 1 MT 5'PFS UUA 3'PFS AAC (mixed)
RNA 1: B1 RNA 1
RNA 2: B1 RNA 2 with G28U, U29A, U52A, C53A, U54C
B37: target 1 insG 3' of 11,insC 3' of 5 (mixed)
RNA 1: B1 RNA 1
RNA 2: B16 RNA 2 with C42G, A43U, U44A, A45U, U46C, C48G, G49C
B38: target 1 MT 5'PFS CUC 3'PFS UUG (mixed)
RNA 1: B1 RNA 1
RNA 2: B1 RNA 2 with U27C, G28U, U29C, C53U, U54G
B39: target 1 MT 5'PFS GUA 3'PFS GUU (mixed)
RNA 1: B1 RNA 1
RNA 2: B1 RNA 2 with U27G, G28U, U29A, U52G, C53U

What follows are binders tested against T1, EsCas13d, nuclease-dead (assay: crRNA (strand 1, pre-loaded); Mg2+; 40 mM Tris-HCl pH 7.5, 150 mM NaCl, 6 mM MgCl2, 1 mM DTT, 0.1% Tween-20, 0.2 mg/ml BSA; 25 C; 10 min per concentration, then washed). Conditions: tags: His6-TwinStrep-SUMO cleaved; N-terminal SNAP kept (SNAP-Surface 488); label: 3' end held by stalled T7 RNA polymerase.

Point of comparison: B31, Kd 16.4 ± 3.2 nM. Against it:
- B1 — 1.7-fold higher, 28.5 ± 6.5 nM
- B2 — 2.4-fold higher, 39 ± 17 nM
- B3 — 3.7-fold higher, 61 ± 20.5 nM
- B4 — within error, 24.5 ± 5 nM
- B5 — 1.7-fold higher, 27.3 ± 7.15 nM
- B6 — 4.9-fold higher, 80 ± 40 nM
- B7 — 2.3-fold lower, 7.25 ± 2 nM
- B8 — 3.4-fold higher, ~55 nM
- B9 — 2.4-fold higher, ~40 nM
- B10 — within error, 28 ± 10 nM
- B11 — within error, 13.7 ± 5.05 nM
- B12 — 2.2-fold higher, 35.5 ± 15 nM
- B13 — 2.3-fold higher, 38 ± 13 nM
- B14 — 2.6-fold higher, 42.5 ± 13.5 nM
- B15 — 2.4-fold higher, 39 ± 10.5 nM
- B16 — within 1.5-fold, 21.4 ± 1 nM
- B17 — 3.1-fold higher, ~50.5 nM
- B18 — 2.9-fold higher, 47.5 ± 10.5 nM
- B19 — within error, 16.9 ± 2.45 nM
- B20 — 6.3-fold lower, 2.6 ± 0.75 nM
- B21 — 3.2-fold higher, 52 ± 16 nM
- B22 — within error, 20.5 ± 4 nM
- B23 — within 1.5-fold, ~21 nM
- B24 — 1.6-fold higher, 27 ± 5 nM
- B25 — 5.2-fold higher, ~85 nM
- B26 — 2.1-fold higher, ~34.5 nM
- B27 — 4.1-fold higher, 67.5 ± 27.5 nM
- B28 — 1.9-fold lower, 8.5 ± 0.95 nM
- B29 — 4.3-fold higher, ~70 nM
- B30 — 1.8-fold lower, 9.35 ± 1 nM
- B32 — 2.7-fold higher, ~43.5 nM
- B33 — 2.9-fold higher, 47.5 ± 13 nM
- B34 — 2.7-fold higher, 43.5 ± 17.5 nM
- B35 — 1.6-fold lower, 9.95 ± 2.7 nM
- B36 — 2.1-fold higher, 34 ± 10.5 nM
- B37 — 4.8-fold higher, 78 ± 21 nM
- B38 — 6.4-fold higher, ~105 nM
- B39 — within 1.5-fold, 11.4 ± 1.05 nM
